As usually defined, the Kd is a measure of binding affinity in units of concentration. Low readings indicate a tighter complex, high ones a looser complex.

The values below come from PMC5397176.

The assay deals with Cy3–Cy5 labeled nucleosome containing H3KC36me3 (human) (UniProt Q71DI3). The assay is described as follows: other fluorescence titration.

As to PHF1(2–87) (domain or fragment), the Kd was found to be 20 µM and the S1/2 of the PHF1(2–87) titration at constant LexA was found to be 16 µM.
